# From patent US20090304687A1, “METHODS OF USING CD40 BINDING AGENTS” (Seattle Genetics , Inc., priority 2005, published 2009)
# Numbering of substitutions follows the chain as printed. In names and notes the source's numbering stands. Several values for one entry are separate records, joined by “and”; a condition that tells them apart may be missing. Equal entries are not always repeated. Entries after “also recorded” stand apart in the source; their conditions may differ. Where two headings read alike, the source gives them in different places.
# B1: hu sgn-1 (antibody, V domains shown)
# VH: EVQLVESGGGLVQPGGSLRLSCAASGYSFTGYYIHWVRQAPGKGLEWVARVIPNNGGTSYNQKFKGRFTISVDNSKNTLYLQMNSLRAEDTAVYYCAREGIYWWGQGTLVTVS
# VL: DIQMTQSPSSLSASVGDRVTITCRSSQSLVHSNGNTFLHWYQQKPGKAPKLLIYTVSNRFSGVPSRFSGSGSGTDFTLTISSLQPEDFATYYCSQTTHVPWTFGQGTKVEIKR
# B2: hu sgn-16: humanized CD40 antibody variant, heavy SEQ ID NO: 9 (F68A I69L R72V), light SEQ ID NO: 14 (antibody, V domains shown)
# VH: B1 VH with F68A, I70L
# VL: B1 VL
# B3: hu sgn-19: humanized CD40 antibody variant, heavy SEQ ID NO: 7, light SEQ ID NO: 16 (Y92F) (antibody, V domains shown)
# VH: B1 VH with I70L, L79A
# VL: B1 VL with Y92F
# B4: hu sgn-14: humanized CD40 antibody variant, heavy SEQ ID NO: 7 (I70L R72V L79A), light SEQ ID NO: 14 (antibody, V domains shown)
# VH: B1 VH with I70L, L79A
# VL: B1 VL
# B5: hu sgn-17 (antibody, V domains shown)
# VH: B1 VH with F68A, I70L, L79A
# VL: B1 VL with I2V, M4V
# B6: hu sgn-22 (antibody, V domains shown)
# VH: B1 VH with N55A, I70L, L79A
# VL: B1 VL
# B7: hu sgn-15 (antibody, V domains shown)
# VH: B1 VH with F68A, L79A
# VL: B1 VL
# B8: hu sgn-26 (antibody, V domains shown)
# VH: B1 VH with N55A, I70L, L79A
# VL: B1 VL with Y92F
# B9: hu sgn-23 (antibody, V domains shown)
# VH: B1 VH with N55Q, I70L, L79A
# VL: B1 VL
# B10: hu sgn-27 (antibody, V domains shown)
# VH: B1 VH with N55Q, I70L, L79A
# VL: B1 VL with Y92F
# B11: hu sgn-4 (antibody, V domains shown)
# VH: B1 VH with F68A, I70L, L79A
# VL: B1 VL
# B12: hu sgn-18 (antibody, V domains shown)
# VH: B1 VH with F68A, I70L, L79A
# VL: B1 VL with Y92F
# B13: hu sgn-2 (antibody, V domains shown)
# VH: B1 VH with V72R, N74K
# VL: B1 VL
# B14: SGN-14 (parent murine antibody, donor) (antibody, V domains shown)
# VH: EVQLQQSGPDLVKPGASVKISCKASGYSFTGYYIHWVKQSHGKSLEWIGRVIPNNGGTSYNQKFKGKAILTVDKSSSTAYMELRSLTSEDSAVYYCAREGIYWWGHGTTLTVS
# VL: DVVVTQTPLSLPVSLGAQASISCRSSQSLVHSNGNTFLHWYLQKPGQSPKLLIYTVSNRFSGVPDRFSGSGSGTDFTLKISRVEAEDLGVYFCSQTTHVPWTFGGGTKLEIQR
# notes: Murine monoclonal antibody; also called S2C6; murine CD40 donor antibody
# Experiments:
# [1] = tested on: Ramos cells; assay: In vitro drug combinations with SGN-40, 3H-thymidine proliferation, Combination Index; assay type: cell-based; settings: for Combination Index at ED50 / Combination Index at ED75 / Combination Index at ED90: drug with cross-linked SGN-40 (30.0-0.0586 ng/ml), Ramos cells 2% FBS, 72 hours
# Method: Cells were treated for 72 hours, then labeled with ^3H-thymidine for 4 hours to measure proliferation rates. Dose response curves of drugs alone and in combination with the humanized CD40 antibody were reduced in Excel, and Combination Indices (CI) determined using the Calcusyn analysis package (Biosoft). […] CI values equal to 1.0 indicate an additive integration. For these studies, n=3 unless otherwise indicated.
# [2] = tested on: Ramos Burkitt's lymphoma cells; assay: Combination therapy with CHOP or prednisone, subcutaneous Ramos Burkitt's lymphoma in SCID mice; assay type: in vivo, C.B.-17 SCID mice
# Method: To model localized lymphoma, 5×10^6 Ramos Burkitt's lymphoma cells were implanted subcutaneously into the right flank of C.B.-17 SCID mice (Harlan, Indianapolis, Ind.). Therapy was initiated when the mean tumor size in each group of five animals was 100 mm^3. CHOP was used for a single course, alone or in combination with humanized CD40 antibody (hu sgn-0; SGN-40), using the following dose schedule: cyclophosphamide at 30 mg/kg, i.v. qld x 1; doxorubicin at 2.475 mg/kg, i.v. qld x 1; vincristine at 0.375 mg/kg, i.v. qld x 1; and prednisone at 0.15 mg/kg, p.o. q1d x 5. The CD40 antibody was administered i.p. at 4 mg/kg q4d x 4 when used alone or in combination with prednisone or CHOP. Tumor size was determined using the formula (L×W^2)/2.
# To compare the effect of SGN-40 treatment alone or in combination with CHOP or prednisone, SCID mice were subcutaneously implanted with Ramos cells, and dosed with SGN-40 alone or in combination with CHOP as described above. In addition, prednisone steroid was administered alone (0.15 mg/kg, qld x 5 po) or in combination with SGN-40 (4.0 mg/kg, q4d x 4 ip).
# [3] = molecular target: CD40 immobilized on microassay plates (UniProt P25942 21-193, limits assumed); assay: serially diluted antibody on CD40 immobilized on microassay plates
# CD40 immobilized on microassay plates, sequence (P25942 21-193 limits assumed): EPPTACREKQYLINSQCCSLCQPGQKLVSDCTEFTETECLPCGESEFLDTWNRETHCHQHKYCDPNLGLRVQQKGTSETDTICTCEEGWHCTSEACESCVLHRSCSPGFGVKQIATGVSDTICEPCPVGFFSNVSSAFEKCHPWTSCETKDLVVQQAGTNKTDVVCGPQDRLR
# Method: (§1) Antibodies constructed using these variant light and heavy chain variable domains were analyzed for binding activity. Each antibody was diluted to equivalent concentrations, and then serially diluted. The diluted antibodies were assayed for binding to CD40 immobilized on microassay plates.
# [4] = molecular target: CD40 (Homo sapiens, UniProt P25942); assay: Binding of variant antibodies to CD40 immobilized on microassay plates; design: Binding Data 1 / Binding Data 2 / Binding Data 3: unit not given here; settings: for Binding Data 2 / Binding Data 1: affinity binding data, serially diluted antibody on immobilized CD40; for binding activity compared with the parent murine antibody: in words
# CD40, sequence (P25942 21-277): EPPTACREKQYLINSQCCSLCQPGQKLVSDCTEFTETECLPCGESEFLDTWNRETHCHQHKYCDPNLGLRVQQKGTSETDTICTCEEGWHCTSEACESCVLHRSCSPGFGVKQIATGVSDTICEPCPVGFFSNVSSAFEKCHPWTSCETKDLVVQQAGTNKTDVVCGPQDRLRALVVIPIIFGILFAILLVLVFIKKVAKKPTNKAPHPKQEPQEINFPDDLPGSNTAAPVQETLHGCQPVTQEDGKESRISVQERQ
# Method: as §1, with “plates. Affinity binding data for the variant antibodies are shown below in Table 3.” for “plates.”
# [5] = drug with cross-linked SGN-40, Ramos cells
molecule,measurement,setting,value
Nc1ccn([C@@H]2O[C@H](CO)[C@@H](O)[C@@H]2O)c(=O)n1 [Ara-C],Combination Index at ED50,[1],0.95
same,Combination Index at ED75,[1],0.90
same,Combination Index at ED90,[1],0.90
same,Effect (of combination with SGN-40),[1]; [5],Additive
N.N.[Cl][Pt][Cl] [Cisplatin],Combination Index at ED50,[1],1.04
same,Combination Index at ED75,[1],0.89
same,Combination Index at ED90,[1],0.78
same,Effect (of combination with SGN-40),[1]; [5],Additive → Syn.
same,Effect (of combination with SGN-40),"[1]; drug with cross-linked SGN-40, Ramos cells, listed as cisplatin",additive
COc1cc([C@@H]2c3cc4c(cc3[C@@H](O[C@@H]3O[C@@H]5CO[C@@H](C)O[C@H]5[C@H](O)[C@H]3O)[C@H]3COC(=O)[C@H]23)OCO4)cc(OC)c1O [Etoposide],Effect (of combination with SGN-40),[1]; [5],Antagonistic. → Add.
N[C@@H](Cc1ccc(N(CCCl)CCCl)cc1)C(=O)O [Melphalan],Effect (of combination with SGN-40),[1]; [5],Additive
same,Effect (of combination with SGN-40),"[1]; drug with cross-linked SGN-40, Ramos cells, listed as melphalan",additive
O=C1c2c(O)ccc(O)c2C(=O)c2c(NCCNCCO)ccc(NCCNCCO)c21 [Mitoxantrone],Effect (of combination with SGN-40),[1]; [5],Syn. → Add.
same,Effect (of combination with SGN-40),"[1]; drug with cross-linked SGN-40, Ramos cells, listed as mitoxantrone",additive
C[C@]12C=CC(=O)C=C1CC[C@@H]1[C@@H]2C(=O)C[C@@]2(C)[C@H]1CC[C@]2(O)C(=O)CO [prednisone],"effect on tumor growth, administered alone","[2]; CHOP single course, prednisone 0.15 mg/kg p.o. q1d x 5",little effect
same,efficacy in combination with humanized CD40 antibody (SGN-40),[2]; SGN-40 4 mg/kg i.p. q4d x 4 plus CHOP or prednisone,greater efficacy
Bleomycin,Effect (of combination with SGN-40),[1],Synergistic
TNFα,Combination Index at ED50,[1],0.70
same,Combination Index at ED75,[1],0.61
same,Combination Index at ED90,[1],0.60
same,Effect (of combination with SGN-40),[1]; [5],Synergistic
B1,Binding Data 1,[3],23.6
same,Binding Data 2,[3],19.3
B2,Binding Data 2,[4],1.82 and 1.83
B3,binding activity compared with the parent murine antibody,[4],approaching that of the parent murine antibody
B4,Binding Data 1,[4],1/11 and 0.86 and 0.77
same,Binding Data 2,[4],0.69 and 0.77
B5,Binding Data 2,[3],3.56
B6,Binding Data 1,[4],1.44 and 1.41 and 1.80 and 0.93
same,binding activity compared with the parent murine antibody,[4],approaching that of the parent murine antibody
same,Binding Data 2,[3],0.84
B7,Binding Data 2,[3],2.71
B8,Binding Data 1,[4],1.02 and 1.06
same,binding activity compared with the parent murine antibody,[4],approaching that of the parent murine antibody; also recorded: more closely approaching that of the parent murine antibody; also recorded: best performance
same,Binding Data 2,[3],0.92
B9,binding activity compared with the parent murine antibody,[4],approaching that of the parent murine antibody
same,Binding Data 2,[3],0.9
B10,Binding Data 1,[4],1.04 and 1.03 and 0.94 and 0.83
same,binding activity compared with the parent murine antibody,[4],approaching that of the parent murine antibody; also recorded: more closely approaching that of the parent murine antibody
same,Binding Data 2,[3],1.4
B11,Binding Data 2,[3],2.46
B12,Binding Data 1,[4],0.96 and 0.67
same,binding activity compared with the parent murine antibody,[4],approaching that of the parent murine antibody; also recorded: more closely approaching that of the parent murine antibody
same,Binding Data 2,[3],1.03
B13,Binding Data 1,[3],471
same,Binding Data 2,[3],371
B14,Binding Data 1,[3],1
same,Binding Data 2,[3],1.33
